Reference: the supplement of paper PMC9170038

Tested on: MS2 coat protein
Test: apparent KD of MS2 coat protein; higher = weaker reporter binding
Conditions: Eterna round: R107
Procedure, shortened: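 For every design, apparent KD is the median of normalised binding-curve fits from its clusters. The RNA switches were transcribed on-chip from Illumina sequencing clusters and titrated with SNAP-549-labelled MS2 coat protein (twofold steps, 0.7 or 1.5 nM to 3 µM; 0.8–1.5 h to 10–20 min per step). Titrations used 100 mM Tris-HCl pH 7.5, 80 mM KCl, 4 mM MgCl2, without or with constant ligand.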

[1] = input ligand: theophylline 20 uM
[2] = input ligand: theophylline 2 mM
[3] = input ligand: tryptophan 2.4 mM

Sequence	apparent KD of MS2 coat protein (input ligand: arginine 13.2 mM)	apparent KD of MS2 coat protein [1]	apparent KD of MS2 coat protein [2]	apparent KD of MS2 coat protein [3]	apparent KD of MS2 coat protein (input ligand: none)
GUACCACAGUCGGCCGCCACUAAGUUGUAUUCCAGCAGGACGAAACAUGAGGAUCACCCAUGUCCUAGGACCGGGACUUCCGUCG [theeternabot_sameState_MS2_Trp_B_41]	16.9 nM	25.2 nM	25.6 nM		
GUGUUAUGGUCGGCCGCCACUCUGACAUGAGGAUCACCCAUGUUGUACAUGAGGAUCACCCAUGUGAGGACCGGGACACGUGCGA [Exclusion Tryptophan B GF10]	203 nM	363 nM	476 nM		
UAAAACAUGAGGAUCACCCAUGUAAUUGAUACCAGAGUGAUGAUCCUCCCUUGGCAGCAAAUAACGCAUUGGAAACAAUGCGAAA [Mat - Same State Theophlline A - Mod of Eli - D26]	51.4 nM	91.6 nM		47.8 nM	
UAAAAUAAUAAUGAUACCAGCCCUCCCUCCCGGGACAUGAGGAUCACCCAUGUCUCUCCCGGCCCUUGGCAGCAUAAAUAAUAAU [Same Stare - Theophylline B]	12.1 nM	15 nM		12.1 nM	
UAACAUGAGGAUCACCCAUGUUUAGAAGAACGAGGACCGGUACGGCCGCCACUCGAAAAGUGGAAGAAAAGAGGGAUAGAAUGAU [Same State Trp A GF1]	14 nM	16 nM	12.2 nM		
UAAUAUCACAUAUUAUGGGUGUAAUGUGAUACCAGCUAGGAAACUAGCCCUUGGCAGCACAUGAGGAUCACCCAUGUAAGCUGUA [(T1)'-(M)'-(T1)-(T2)-(M1)-(M2)-(T2)'_Design4_2/19/17]	29.1 nM	123 nM		68.9 nM	
UAAUGUGAGAGAAGGAGCGGAAGUCUCGUUACAACAUGAGGAUCACCCAUGUAACGUACAGUCCAGGUAGGUCGCUCUCGGGCGC [pqacmullin]	16.9 nM	21.4 nM	18.1 nM	15.5 nM	14.8 nM
UACAUGAGGAUCACCCAUGUCUGAACUGAAGGAGCGCUAAAUAAGGCAGGUAGGUCGCGGAAUUUUGUGUGCAUAUGCAUAUGGG [9.L]	34.5 nM	39.4 nM	37.9 nM	38.2 nM	36.4 nM
UAGCGAUCUCGUUAAAGGAUCCCAUUUGAUACCAGAGAACUUUGCCUCCCUUGGCAGCAAGUGACAUGAGGAUCACCCAUGUUGA [theeternabot_exclusion_MS2_Theo_A_3]	16.4 nM	20 nM		16.4 nM	
UAGUUGCUGACGGCCGCCACUAGAACAUGAGGAUCACCCAUGUAUUCUAGUGGACAUGGGUGGACUAGGACCGGGUCAGCAACAU [(Trp1)-(Ms2)-(T)'-(M)'-(Trp2)_Design9]	21 nM	37.8 nM	21 nM	30.8 nM	20.6 nM
UAUAGUACCAGACAUGAGGAUCACCCAUGUCGAGGACCGGUACGGCCGCCACUCGGCAGUUUGCGUCCUCAGGUACUCCGGGUCA [Larisotexe]	17.6 nM	28.3 nM	26.1 nM		
UAUAUAGAUGGACGUCAUCUAGAUGCAGAAGGAGCGUAGGAAACUACAGGUAGGUCGCUGAGGUACAUGAGGAUCACCCAUGUAG [SSArg A #21 Slice of Pi]	22.7 nM	28.8 nM	27 nM	21.5 nM	18.9 nM
UAUAUUGUGAUGGAUACCAGCAGAGAAAACGUUUAUCCUAACAUGAGGAUCACCCAUGUAUGCCCUUGGCAGCUGUUGUGGUAUA [8.P]	34.7 nM	55.3 nM		38.6 nM	
UAUCCACAUGAGGAUCACCCAUGUAGGGAAGGAGCGGUGAUUUCACCAGGUAGGUCGCCUUGCUCAGGGUUGCCGGUGGAAUCGU [Exclusion - Arginine A (Freestyle 34)]	24.9 nM	19.7 nM	13.3 nM	9.73 nM	12.7 nM
UAUCCACAUGAGGAUCACCCAUGUUAGGAAGGAGCGGUGGAUGCACCAGGUAGGUCGCCUAGCUGAGGACUGUCGGUGGAUUCGU [Exclusion - Arginine A (Freestyle 21)]	56.5 nM	92.1 nM	131 nM	94.9 nM	86.5 nM
UAUCGUCAGACGGCCGCCACUAGAACAUGAGGAUCACCCAUGUACUAGUGGCAUACCUCAUGAACUAGGACCGGGUCUGACGAAU [(Trp1)-(Ms2)-(T)'-(M)'-(Trp2)_Design10]	10.2 nM	11.8 nM	10.2 nM		
UAUUUGGUGCGCGAGUGUUGGAUAAUUGAUACCAGUGAAGAAGAGCGCCCUUGGCAGCGAAUCCUAACAUGAGGAUCACCCAUGU [5.T]	35.9 nM	55.3 nM		35.4 nM	
UCACGACGGAUGGAUACCAGCGACAUGAGGAUCACCCAUGUAUGAGGAUCAGCCAUGUUAUGCCCUUGGCAGCCACGAAGGUCAU [YYYMULLIN]	13.2 nM	29.3 nM	195 nM	18.2 nM	19 nM
